Experimental data reported in PMC4726468, “Innovation of a Regulatory Mechanism Modulating Semi-determinate Stem Growth through Artificial Selection in Soybean”.

T1: Dt2-6xHis (soybean; cultivar of the cloned CDS not …, UniProt I1N4Q7 1-253)
T1 sequence: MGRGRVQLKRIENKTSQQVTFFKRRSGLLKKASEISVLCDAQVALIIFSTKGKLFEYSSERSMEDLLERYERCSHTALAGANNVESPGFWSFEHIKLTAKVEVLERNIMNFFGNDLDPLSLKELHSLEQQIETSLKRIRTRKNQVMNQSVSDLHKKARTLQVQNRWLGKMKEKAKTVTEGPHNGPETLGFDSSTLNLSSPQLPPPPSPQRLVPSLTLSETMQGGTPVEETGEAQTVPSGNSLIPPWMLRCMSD


Experiments:
Dt2-6xHis = biological target: T1, Dt2-6xHis; test: EMSA; DIG Gel Shift Kit (Roche 3353591910), manufacturer's instructions; buffer, salt, pH and temperature not stated; conditions: protein: recombinant; tags: 6xHis (pET-DEST42); chain copies: 2; label: digoxigenin; blunt
GmSOC1-6xHis = GmSOC1-6xHis (soybean; cultivar of the cloned CDS not …, UniProt A0A2K7FY55 1-209); test: as above; conditions: protein: recombinant; tags: 6xHis (pET-DEST42); chain copies: 2; label: digoxigenin; blunt
Chain of GmSOC1-6xHis (A0A2K7FY55 entry or part of it): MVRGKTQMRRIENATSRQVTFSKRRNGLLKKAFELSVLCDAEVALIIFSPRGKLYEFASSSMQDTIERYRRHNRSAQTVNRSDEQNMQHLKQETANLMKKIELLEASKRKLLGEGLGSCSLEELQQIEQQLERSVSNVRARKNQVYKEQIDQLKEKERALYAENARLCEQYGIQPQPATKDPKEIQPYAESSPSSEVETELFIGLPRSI

Row | Binder | binding result (Dt2-6xHis) | binding result (GmSOC1-6xHis)
1 | Dt1-CArG5 (dsDNA) DNA 1: TCTTTTACCAATATTGGAACTTGG DNA 2: CCAAGTTCCAATATTGGTAAAAGA | binds | binds
2 | Dt1-CArG2 (dsDNA) DNA 1: CTTATACCAAAATAAGCAACTAAC DNA 2: GTTAGTTGCTTATTTTGGTATAAG | binds | 
3 | Dt1-CArG1 (dsDNA) DNA 1: AATATCCAAATTTAGAAATATG DNA 2: CATATTTCTAAATTTGGATATT | binds | 
